The values below come from publication PMC3282741, “Independent Recruitment of a Flavin-Dependent Monooxygenase for Safe Accumulation of Sequestered Pyrrolizidine Alkaloids in Grasshoppers and Moths” (PLoS ONE, 2012).

For one series, the target named is T1, ZvPNO (Zonocerus variegatus, UniProt L0N8S9).
T1 construct: gene pno; full ORF (1242 bp, 47,793 Da subunit), no signal peptide predicted, C-terminal His6, pET28a, E. coli BL21(DE3), Ni-NTA; homodimer (91,200 Da)
The format is biochemical. The conditions noted are these: 0.2 mM NADPH; 100 mM glycine/NaOH pH 9; 37°C. The source says: (§1) photometric or radioassay N-oxygenation, initial rates on ZvPNO

For series [1], the system named is CN1[C@@H]2CC[C@H]1CC(OC(=O)C(CO)c1ccccc1)C2. The experiment in a line: purified protein. Particulars: 0.2 mM NADPH, 100 mM glycine/NaOH pH 9, 37°C.
For series [2], the system named is C/C=C1/C[C@@H](C)[C@@](C)(O)C(=O)OCC2=CCN3CC[C@@H](OC1=O)[C@@H]23. The experiment in a line: purified protein. It is filed as biochemical, Zonocerus variegatus. The conditions noted are these: 0.2 mM NADPH, 100 mM glycine/NaOH pH 9, 37°C.
From the text: as §1

Series [3] relates to CO[C@H](C)[C@](O)(C(=O)OCC1=CCN2CC[C@H](O)[C@@H]12)C(C)C. The experiment in a line: purified protein. It is filed as biochemical, Zonocerus variegatus. Particulars: 0.2 mM NADPH, 100 mM glycine/NaOH pH 9, 37°C.
From the text: as §1

The test system of series [4] is C[C@H]1C(=O)O[C@@H]2CCN3CC=C(COC(=O)[C@](C)(O)[C@]1(C)O)[C@H]23. The experiment in a line: purified protein. The format is biochemical, Zonocerus variegatus. The conditions noted are these: 0.2 mM NADPH, 100 mM glycine/NaOH pH 9, 37°C.
From the text: as §1

As usually defined, the Km is the substrate concentration at which the rate is half of its maximum. Broadly, the Vmax is the rate approached at saturating substrate. As a reminder, the kcat is the number of substrate molecules converted per active site and unit of time at saturation. As a reminder, the kcat/Km is the second-order rate constant that governs catalysis at low substrate concentration.

With phalaenopsine, the Km at ZvPNO stood at 838 ± 77.4 µM.
For the substance ZvPNO (Zonocerus variegatus), the Km in series [1] stood at 9.83 ± 1.04 µM; in series [2], 1.08 ± 0.07 µM; in series [3], 263.89 ± 10.06 µM; in series [4] it was 11.93 ± 0.76 µM. For the same substance, the Vmax in series [1] is 0.461 µmol/min/mg; in series [2], 1.24 µmol/min/mg; in series [3] it was 0.149 µmol/min/mg; in series [4], 1.2 µmol/min/mg. Moreover, the kcat turned out to be 0.37 s⁻¹ in series [1], 0.99 s⁻¹ in series [2], 0.12 s⁻¹ in series [3] and 0.96 s⁻¹ in series [4]. In addition, the kcat/Km in series [1] came out at 37600 M⁻¹ s⁻¹; in series [2], 917000 M⁻¹ s⁻¹; in series [3] it was 454 M⁻¹ s⁻¹; in series [4], 80500 M⁻¹ s⁻¹.
